Assays:
[1] = tested on: T1, G8PEX, extracellular region of the major coat protein G8P from bacteriophage M13
T1 sequence: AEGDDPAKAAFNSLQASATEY

[2] = tested on: T2, G8PEX from bacteriophage I2-2
T2 sequence: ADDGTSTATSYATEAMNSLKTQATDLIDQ

[3] = tested on: T3, G8PEX from Pseudomonas phage Pf1
T3 sequence: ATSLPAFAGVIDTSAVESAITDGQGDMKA

[4] = tested on: T4, G8PEX ortholog peptide from L. monocytogenes (strain M7) bacteriophage M7
T4 sequence: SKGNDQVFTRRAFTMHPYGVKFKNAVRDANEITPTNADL

[5] = tested on: T5, G8PEX from bacteriophage f1
T5 sequence: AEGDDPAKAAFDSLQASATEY

With “Streptococcus pyogenes Cas9 nuclease (SpCas9)” the “in vitro DNA cleavage by pre-assembled Cas9 RNP” value [1] was “the activity of pre-assembled Cas9 RNP was not affected by G8PEX”, the “in vitro cleavage activity of SpCas9” value [1] was “could efficiently inhibit the cleavage activity of SpCas9 in vitro” and the “in vitro cleavage activity of SpCas9” value [2] was “could efficiently inhibit the cleavage activity of SpCas9 in vitro”. For the same substance, the “in vitro cleavage activity of SpCas9” value [3] was “could efficiently inhibit the cleavage activity of SpCas9 in vitro”, the “DNA cleavage activity of SpCas9” value [4] was “efficiently prohibited SpCas9 to bind to sgRNA (FIG. 7d) or cleave DNA substrate (FIG. 7e)” and the “in vitro cleavage activity of SpCas9” value [5] was “could efficiently inhibit the cleavage activity of SpCas9 in vitro”.

From US20210317480
